# Results published in the supplement of paper PMC5998384.
# How the values were obtained:
# HeLa Kyoto [1] = experiment: solubility in G1/S (NP-40 vs SDS abundance) (log2 ratio); higher = more soluble; settings: cell cycle stage: G1/S
# HeLa Kyoto [2] = experiment: solubility change mitosis vs G1/S (difference of NP-40 vs SDS log2 ratios) (log2 ratio difference); higher = more soluble in mitosis
# 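Throughout, for solubility change mitosis vs G1/S (difference of NP-40 vs SDS log2 ratios): synchronized HeLa Kyoto cells (double thymidine block for G1/S, nocodazole release for mitosis), protein amounts in NP-40 versus SDS lysates quantified by mass spectrometry, three biological replicates.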
# 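Throughout, for solubility in G1/S (NP-40 vs SDS abundance): HeLa Kyoto cells arrested at G1/S by double thymidine block, proteins quantified by TMT10plex mass spectrometry in mild NP-40 versus SDS extracts, three biological replicates.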
# Chain of CIC (chain, as listed by the source): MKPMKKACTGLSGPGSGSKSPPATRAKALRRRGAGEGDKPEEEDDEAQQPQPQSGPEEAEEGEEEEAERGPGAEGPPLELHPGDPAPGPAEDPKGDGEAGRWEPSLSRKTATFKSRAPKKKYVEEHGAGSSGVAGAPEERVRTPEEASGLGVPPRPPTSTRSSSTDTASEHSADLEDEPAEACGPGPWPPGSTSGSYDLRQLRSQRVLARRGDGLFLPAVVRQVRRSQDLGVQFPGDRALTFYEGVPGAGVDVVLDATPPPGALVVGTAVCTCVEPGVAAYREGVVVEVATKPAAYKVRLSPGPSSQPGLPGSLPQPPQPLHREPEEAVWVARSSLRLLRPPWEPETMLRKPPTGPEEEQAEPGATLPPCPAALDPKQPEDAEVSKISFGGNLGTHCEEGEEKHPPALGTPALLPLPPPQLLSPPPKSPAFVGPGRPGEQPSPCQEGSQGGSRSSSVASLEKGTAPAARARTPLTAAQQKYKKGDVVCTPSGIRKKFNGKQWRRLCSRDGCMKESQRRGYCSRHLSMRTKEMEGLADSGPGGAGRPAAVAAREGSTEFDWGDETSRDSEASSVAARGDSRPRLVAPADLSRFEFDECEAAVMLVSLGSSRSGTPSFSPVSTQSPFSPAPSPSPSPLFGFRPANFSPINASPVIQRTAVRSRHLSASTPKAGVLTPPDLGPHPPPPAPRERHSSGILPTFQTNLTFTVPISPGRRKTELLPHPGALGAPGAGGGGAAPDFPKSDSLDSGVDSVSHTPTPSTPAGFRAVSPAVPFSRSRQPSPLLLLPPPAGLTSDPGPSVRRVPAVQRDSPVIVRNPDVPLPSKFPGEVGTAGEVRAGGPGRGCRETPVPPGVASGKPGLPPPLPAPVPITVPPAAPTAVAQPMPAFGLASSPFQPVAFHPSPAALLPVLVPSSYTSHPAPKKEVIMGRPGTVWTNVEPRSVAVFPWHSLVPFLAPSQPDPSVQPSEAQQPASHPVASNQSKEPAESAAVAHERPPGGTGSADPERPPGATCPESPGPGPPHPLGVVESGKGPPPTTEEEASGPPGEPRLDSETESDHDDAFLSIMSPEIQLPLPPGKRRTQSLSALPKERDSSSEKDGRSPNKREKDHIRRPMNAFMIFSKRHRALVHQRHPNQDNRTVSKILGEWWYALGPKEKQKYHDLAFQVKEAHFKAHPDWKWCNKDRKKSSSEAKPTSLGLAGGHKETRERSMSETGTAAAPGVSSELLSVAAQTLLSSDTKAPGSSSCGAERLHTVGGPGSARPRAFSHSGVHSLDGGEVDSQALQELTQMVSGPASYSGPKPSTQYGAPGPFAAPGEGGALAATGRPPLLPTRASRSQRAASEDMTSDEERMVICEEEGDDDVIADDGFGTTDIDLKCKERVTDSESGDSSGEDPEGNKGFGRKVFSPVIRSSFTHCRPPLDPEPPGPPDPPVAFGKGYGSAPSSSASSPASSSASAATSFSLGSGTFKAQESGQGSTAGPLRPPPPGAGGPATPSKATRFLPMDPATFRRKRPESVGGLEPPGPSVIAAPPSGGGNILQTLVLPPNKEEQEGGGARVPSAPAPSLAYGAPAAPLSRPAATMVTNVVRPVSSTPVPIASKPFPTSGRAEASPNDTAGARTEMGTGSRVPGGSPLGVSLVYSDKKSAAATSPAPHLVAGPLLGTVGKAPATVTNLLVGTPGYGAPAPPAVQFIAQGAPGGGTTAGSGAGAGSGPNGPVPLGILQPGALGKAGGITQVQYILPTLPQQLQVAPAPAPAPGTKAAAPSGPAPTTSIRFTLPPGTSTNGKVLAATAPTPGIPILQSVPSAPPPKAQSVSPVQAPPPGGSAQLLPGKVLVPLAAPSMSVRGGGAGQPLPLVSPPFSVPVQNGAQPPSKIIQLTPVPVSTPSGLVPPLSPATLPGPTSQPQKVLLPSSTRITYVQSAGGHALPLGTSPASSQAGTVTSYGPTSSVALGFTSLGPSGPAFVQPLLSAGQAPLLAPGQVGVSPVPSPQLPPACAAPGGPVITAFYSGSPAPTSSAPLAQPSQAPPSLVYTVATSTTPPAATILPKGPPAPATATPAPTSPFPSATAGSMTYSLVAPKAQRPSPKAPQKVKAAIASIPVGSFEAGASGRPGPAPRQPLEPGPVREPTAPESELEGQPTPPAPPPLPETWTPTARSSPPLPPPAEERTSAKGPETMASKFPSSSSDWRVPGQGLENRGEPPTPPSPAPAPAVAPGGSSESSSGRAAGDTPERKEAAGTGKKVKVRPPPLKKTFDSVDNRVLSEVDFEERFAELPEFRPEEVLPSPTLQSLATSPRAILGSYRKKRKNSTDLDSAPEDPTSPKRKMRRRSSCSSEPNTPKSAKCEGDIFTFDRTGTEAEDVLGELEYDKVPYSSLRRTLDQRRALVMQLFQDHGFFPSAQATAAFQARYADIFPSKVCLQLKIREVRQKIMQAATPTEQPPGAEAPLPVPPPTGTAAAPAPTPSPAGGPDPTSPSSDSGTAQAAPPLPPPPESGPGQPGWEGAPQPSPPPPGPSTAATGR
Substance,solubility in G1/S (log2) (HeLa Kyoto [1]),solubility change mitosis (log2) (HeLa Kyoto [2])
MAETKIIYHMDEEETPYLVKLPVAPERVTLADFKNVLSNRPVHAYKFFFKSMDQDFGVVKEEIFDDNAKLPCFNGRVVSWLVLAEGAHSDAGSQGTDSHTDLPPPLERTGGIGDSRPPSFHPNVASSRDGMDNETGTESMVSHRRERARRRNREEAARTNGHPRGDRRRDVGLPPDSASTALSSELESSSFVDSDEDGSTSRLSSSTEQSTSSRLIRKHKRRRRKQRLRQADRASSFSSITDSTMSLNIVTVTLNMERHHFLGISIVGQSNDRGDGGIYIGSIMKGGAVAADGRIEPGDMLLQVNDVNFENMSNDDAVRVLREIVSQTGPISLTVAKCWDPTPRSYFTVPRADPVRPIDPAAWLSHTAALTGALPRYGTSPCSSAVTRTSSSSLTSSVPGAPQLEEAPLTVKSDMSAVVRVMQLPDSGLEIRDRMWLKITIANAVIGADVVDWLYTHVEGFKERREARKYASSLLKHGFLRHTVNKITFSEQCYYVFGDLCSNLATLNLNSGSSGTSDQDTLAPLPHPAAPWPLGQGYPYQYPGPPPCFPPAYQDPGFSYGSGSTGSQQSEGSKSSGSTRSSRRAPGREKERRAAGAGGSGSESDHTAPSGVGSSWRERPAGQLSRGSSPRSQASATAPGLPPPHPTTKAYTVVGGPPGGPPVRELAAVPPELTGSRQSFQKAMGNPCEFFVDIM [DVL1],-0.0781,0.0447
MEEERGSALAAESALEKNVAELTVMDVYDIASLVGHEFERVIDQHGCEAIARLMPKVVRVLEILEVLVSRHHVAPELDELRLELDRLRLERMDRIEKERKHQKELELVEDVWRGEAQDLLSQIAQLQEENKQLMTNLSHKDVNFSEEEFQKHEGMSERERQVMKKLKEVVDKQRDEIRAKDRELGLKNEDVEALQQQQTRLMKINHDLRHRVTVVEAQGKALIEQKVELEADLQTKEQEMGSLRAELGKLRERLQGEHSQNGEEEPETEPVGEESISDAEKVAMDLKDPNRPRFTLQELRDVLHERNELKSKVFLLQEELAYYKSEEMEEENRIPQPPPIAHPRTSPQPESGIKRLFSFFSRDKKRLANTQRNVHIQESFGQWANTHRDDGYTEQGQEALQHL [RILPL1],0.246,-0.0361
ZNF106,-1.19,0.915
MVGPGPTAAAAVEERQRKLQEYLAAKGKLKSQNTKPYLKSKNNCQNQPPSKSTIRPKNDVTNHVVLPVKPKRSISIKLQPRPPNTAGSQKPKLEPPKLLGKRLTSECVSSNPYSKPSSKSFQQCEAGSSTTGELSRKPVGSLNIEQLKTTKQQLTDQGNGKCIDFMNNIHVENESLDNFLKETNKENLLDILTEPERKPDPKLYTRSKPKTDSYNQTKNSLVPKQALGKSSVNSAVLKDRVNKQFVGETQSRTFPVKSQQLSRGADLARPGVKPSRTVPSHFIRTLSKVQSSKKPVVKNIKDIKVNRSQYERPNETKIRSYPVTEQRVKHTKPRTYPSLLQGEYNNRHPNIKQDQKSSQVCIPQTSCVLQKSKAISQRPNLTVGRFNSAIPSTPSIRPNGTSGNKHNNNGFQQKAQTLDSKLKKAVPQNHFLNKTAPKTQADVTTVNGTQTNPNIKKKATAEDRRKQLEEWQKSKGKTYKRPPMELKTKRKVIKEMNISFWKSIEKEEEEKKAQLELSSKINNTLTECLNLIEGGVPSNEILNILSSIPEAEKFAKFWICKAKLLASKGTFDVIGLYEEAIKNGATPIQELRKVVLNILQDSNRTTEGITSDSLVAETSITSVEELAKKMESVKSCLSPKEREQVTATPRIAKAEQHNYPGIKLQIGPIPRINGMPEVQDMKFITPVRRSSRIERAVSRYPEMLQEHDLVVASLDELLEVEETKCFIFRRNEALPVTLGFQTPES [CKAP2L],-1.14,0.95
MNPQQQRMAAIGTDKELSDLLDFSAMFSPPVNSGKTRPTTLGSSQFSGSGIDERGGTTSWGTSGQPSPSYDSSRGFTDSPHYSDHLNDSRLGAHEGLSPTPFMNSNLMGKTSERGSFSLYSRDTGLPGCQSSLLRQDLGLGSPAQLSSSGKPGTAYYSFSATSSRRRPLHDSAALDPLQAKKVRKVPPGLPSSVYAPSPNSDDFNRESPSYPSPKPPTSMFASTFFMQDGTHNSSDLWSSSNGMSQPGFGGILGTSTSHMSQSSSYGNLHSHDRLSYPPHSVSPTDINTSLPPMSSFHRGSTSSSPYVAASHTPPINGSDSILGTRGNAAGSSQTGDALGKALASIYSPDHTSSSFPSNPSTPVGSPSPLTGTSQWPRPGGQAPSSPSYENSLHSLQSRMEDRLDRLDDAIHVLRNHAVGPSTSLPAGHSDIHSLLGPSHNAPIGSLNSNYGGSSLVASSRSASMVGTHREDSVSLNGNHSVLSSTVTTSSTDLNHKTQENYRGGLQSQSGTVVTTEIKTENKEKDENLHEPPSSDDMKSDDESSQKDIKVSSRGRTSSTNEDEDLNPEQKIEREKERRMANNARERLRVRDINEAFKELGRMCQLHLKSEKPQTKLLILHQAVAVILSLEQQVRERNLNPKAACLKRREEEKVSAVSAEPPTTLPGTHPGLSETTNPMGHM [TCF12],0.156,-0.221
CIC,-0.00578,-0.0541
MTEESEETVLYIEHRYVCSECNQLYGSLEEVLMHQNSHVPQQHFELVGVADPGVTVATDTASGTGLYQTLVQESQYQCLECGQLLMSPSQLLEHQELHLKMMAPQEAVPAEPSPKAPPLSSSTIHYECVDCKALFASQELWLNHRQTHLRATPTKAPAPVVLGSPVVLGPPVGQARVAVEHSYRKAEEGGEGATVPSAAATTTEVVTEVELLLYKCSECSQLFQLPADFLEHQATHFPAPVPESQEPALQQEVQASSPAEVPVSQPDPLPASDHSYELRNGEAIGRDRRGRRARRNNSGEAGGAATQELFCSACDQLFLSPHQLQQHLRSHREGVFKCPLCSRVFPSPSSLDQHLGDHSSESHFLCVDCGLAFGTEALLLAHRRAHTPNPLHSCPCGKTFVNLTKFLYHRRTHGVGGVPLPTTPVPPEEPVIGFPEPAPAETGEPEAPEPPVSEETSAGPAAPGTYRCLLCSREFGKALQLTRHQRFVHRLERRHKCSICGKMFKKKSHVRNHLRTHTGERPFPCPDCSKPFNSPANLARHRLTHTGERPYRCGDCGKAFTQSSTLRQHRLVHAQHFPYRCQECGVRFHRPYRLLMHRYHHTGEYPYKCRECPRSFLLRRLLEVHQLVVHAGRQPHRCPSCGAAFPSSLRLREHRCAAAAAQAPRRFECGTCGKKVGSAARLQAHEAAHAAAGPGEVLAKEPPAPRAPRATRAPVASPAALGSTATASPAAPARRRGLECSECKKLFSTETSLQVHRRIHTGERPYPCPDCGKAFRQSTHLKDHRRLHTGERPFACEVCGKAFAISMRLAEHRRIHTGERPYSCPDCGKSYRSFSNLWKHRKTHQQQHQAAVRQQLAEAEAAVGLAVMETAVEALPLVEAIEIYPLAEAEGVQISG [ZNF574],-0.386,0.212
MDQFGDILEGEVDHSFFDSDFEEGKKCETNSVFDKQNDDPKERIDKDTKNVNSNTGMQTTENYLTEKGNERNVKFPPEHPVENDVTQTVSSFSLPASSRSKKLCDVTTGLKIHVSIPNRIPKIVKEGEDDYYTDGEESSDDGKKYHVKSKSAKPSTNVKKSIRKKYCKVSSSSSSSLSSSSSGSGTDCLDAGSDSHLSDSSPSSKSSKKHVSGITLLSPKHKYKSGIKSTETQPSSTTPKCGHYPEESEDTVTDVSPLSTPDISPLQSFELGIANDQKVKIKKQENVSQEIYEDVEDLKNNSKYLKAAKKGKEKHEPDVSSKSSSVLDSSLDHRHKQKVLHDTMDLNHLLKAFLQLDKKGPQKHHFDQPSVAPGKNYSFTREEVRQIDRENQRLLKELSRQAEKPGSKSTIPRSADHPPKLYHSALNRQKEQQRIERENLALLKRLEAVKPTVGMKRSEQLMDYHRNMGYLNSSPLSRRARSTLGQYSPLRASRTSSATSGLSCRSERSAVDPSSGHPRRRPKPPNVRTAWL [CFAP97],0.0651,-0.039
MAVDVAEYHLSVIKSPPGWEVGVYAAGALALLGIAAVSLWKLWTSGSFPSPSPFPNYDYRYLQQKYGESCAEAREKRVPAWNAQRASTRGPPSRKGSLSIEDTFESISELGPLELMGRELDLAPYGTLRKSQSADSLNSISSVSNTFGQDFTLGQVEVSMEYDTASHTLNVAVMQGKDLLEREEASFESCFMRVSLLPDEQIVGISRIQRNAYSIFFDEKFSIPLDPTALEEKSLRFSVFGIDEDERNVSTGVVELKLSVLDLPLQPFSGWLYLQDQNKAADAVGEILLSLSYLPTAERLTVVVVKAKNLIWTNDKTTADPFVKVYLLQDGRKMSKKKTAVKRDDPNPVFNEAMIFSVPAIVLQDLSLRVTVAESSSDGRGDNVGHVIIGPSASGMGTTHWNQMLATLRRPVSMWHAVRRN [SYT12],0.0502,-0.135
MPLPEPSEQEGESVKAGQEPSPKPGTDVIPAAPRKPREFSKLVLLTASDQDEDGVGSKPQEVHCVLSLEMAGPATLASTLQILPVEEQGGVVQPALEMPEQKCSKLDAAAPQSLEFLRTPFGGRLLVLESFLYKQEKAVGDKVYWKCRQHAELGCRGRAITRGLRATVMRGHCHAPDEQGLEARRQREKLPSLALPEGLGEPQGPEGPGGRVEEPLEGVGPWQCPEEPEPTPGLVLSKPALEEEEAPRALSLLSLPPKKRSILGLGQARPLEFLRTCYGGSFLVHESFLYKREKAVGDKVYWTCRDHALHGCRSRAITQGQRVTVMRGHCHQPDMEGLEARRQQEKAVETLQAGQDGPGSQVDTLLRGVDSLLYRRGPGPLTLTRPRPRKRAKVEDQELPTQPEAPDEHQDMDADPGGPEFLKTPLGGSFLVYESFLYRREKAAGEKVYWTCRDQARMGCRSRAITQGRRVTVMRGHCHPPDLGGLEALRQREKRPNTAQRGSPGGPEFLKTPLGGSFLVYESFLYRREKAAGEKVYWTCRDQARMGCRSRAITQGRRVMVMRRHCHPPDLGGLEALRQREHFPNLAQWDSPDPLRPLEFLRTSLGGRFLVHESFLYRKEKAAGEKVYWMCRDQARLGCRSRAITQGHRIMVMRSHCHQPDLAGLEALRQRERLPTTAQQEDPEKIQVQLCFKTCSPESQQIYGDIKDVRLDGESQ [FLYWCH1],-0.557,0.409
